Measured values: patent US20190055312A1 (CELL MEDICA, published 2019)
Several values for one entry are separate records, joined by “and”; a condition that tells them apart may be missing. Equal entries are not always repeated. One block for each binder: values may come before it.

How the values were obtained:
[1] = biological target: T1, recombinant human (rh) PD-L1 Fc fusion (RnD Systems, USA, cat. no. 156-B7) (human, UniProt Q9NZQ7 19-239); experiment: competition ELISA, rhPD-L1 Fc fusion coated, displacement of biotinylated PD-1 Fc fusion
T1 construct: Bought reagent; also called human PD-L1 Fc fusion; not shown: Fc part of the bought fusion
Protocol: Plates were blocked with 1% BSA and 0.05% Tween-20 in PBS, pH7.4. A serial dilution of IgGs was prepared, with eleven 1:3 dilutions starting at 1 mcg/mL, and added to plates. […] The ELISA was developed with TMB ELISA substrate solution (eBioscience, USA, cat. no. 00-4201-56).

[2] = biological target: T2, human PD-L1-His (BioVision, USA, cat. no. 7429) (human, UniProt Q9NZQ7 19-238, limits assumed); experiment: KinExA in solution, human PD-L1-His titrated against constant IgG, n-curve analysis
T2 construct: Bought reagent without Fc tag, chosen to avoid avidity; also called His tagged PD-L1; not shown: His tag
Protocol: All steps were carried out at room temperature. […] This voltage signal is used to calculate the KD value and activity of the scFv using the “n-curve analysis” of the KinExA® Pro software version 4.1.9 or 4.2.10 (FIG. 5) using the option “titrant as analysis concentration reference”.
These mixtures were incubated for 5 hours.

[3] = biological target: T2, human PD-L1-His (BioVision, USA, cat. …); experiment: ratio of KinExA KD values (scFv1 on PD-L1 Fc fusion as reference)
[4] = biological target: T3, mouse PD-L1 Fc fusion (Sino Biological, China, cat. no. 50010-M03H or RnD Systems, USA, cat. no. 1019-B7-100) (Mus musculus, UniProt Q9EP73 19-238); experiment: binding ELISA, mouse PD-L1 Fc fusion coated, Protein L-HRP detection
T3 construct: Two bought reagents were used; not shown: Fc part of the bought fusion

[5] = biological target: T1, recombinant human (rh) PD-L1 Fc fusion …; experiment: binding ELISA: coated rhPD-L1 Fc fusion, scFv1 in human serum, 20 h at 37 C, detected with Protein L-HRP
Protocol: (§1) After blocking with PBS, pH7.4 with, 1% BSA and 0.05% Tween-20, a series of 1:3 dilutions of 2.5 mcg/ml to 42 ng/mL serum/scFv samples was added to the ELISA plates in duplicate. […] The ELISA was developed with TMB ELISA substrate solution (eBioscience, USA, cat. no. 00-4201-56).

[6] = biological target: monkey PD-L1 Fc fusion (Sino Biological, China, cat. no. 90251-C02H) (Rhesus macacque (Macaca mulatta)) (UniProt F6PJN1); experiment: ratio of KinExA KD values (human PD-L1 Fc fusion as reference)
[7] = biological target: T4, rhB7-H3 Fc fusion (RnD Systems, USA, cat. no. 1027-B3) (human, UniProt Q5ZPR3-2 29-245, limits assumed); experiment: binding ELISA, rhB7-H3 Fc fusion coated, Protein L-HRP detection
T4 construct: Bought reagent; also called human B7-H3; not shown: Fc part of the bought fusion
T4 sequence (looked up): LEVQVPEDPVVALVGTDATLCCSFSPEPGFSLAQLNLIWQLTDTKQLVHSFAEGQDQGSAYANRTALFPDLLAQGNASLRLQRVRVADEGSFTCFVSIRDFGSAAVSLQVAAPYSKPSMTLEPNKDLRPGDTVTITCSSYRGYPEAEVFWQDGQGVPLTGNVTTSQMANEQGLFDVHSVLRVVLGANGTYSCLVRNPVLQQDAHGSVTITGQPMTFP
Protocol: (§2) Plates were blocked with 1% BSA and 0.5% Tween-20 in PBS, pH7.2. A serial dilution of scFvs was prepared with concentrations of 5, 1 and 0.2 mcg/mL and added to plates.

[8] = biological target: PD-L1 expressing CHO cells (Promega, CS187103) (human, UniProt Q9NZQ7 19-290); experiment: cell-based or functional assay
[9] = biological target: monkey PD-L1 Fc fusion (Sino Biological, China, cat. no. 90251-C02H) (Rhesus macacque (Macaca mulatta)) (UniProt F6PJN1); experiment: KinExA in solution, room temperature, monkey PD-L1 Fc fusion titrated against constant scFv1, n-curve analysis
[10] = biological target: T5, rat PD-L1 Fc fusion (Sino Biological, China, cat. no. 80450-R02H) (Rattus norvegicus (Norway rat), UniProt D4AE25 19-239); experiment: binding ELISA: coated rat PD-L1 Fc fusion, detected with Protein L-HRP
T5 construct: Bought reagent; not shown: Fc part (and any linker) of the bought Sino Biological 80450-R02H fusion
Protocol: Plates were blocked with 1% BSA and 0.5% Tween-20 in PBS, pH7.2. A serial dilution of scFvs was prepared with concentrations of 1 mcg/mL, 333 ng/mL and 111 ng/mL and added to plates. […] Development was with TMB ELISA substrate solution (eBioscience, USA, cat. no. 00-4201-56).

[11] = biological target: T1, recombinant human (rh) PD-L1 Fc fusion …; experiment: binding ELISA: coated rhPD-L1 Fc fusion, scFv1 in human serum, 4 h at 37 C, detected with Protein L-HRP
Protocol: as §1

[12] = biological target: T1, recombinant human (rh) PD-L1 Fc fusion …; experiment: binding ELISA: coated rhPD-L1 Fc fusion, scFv1 in human serum, 0 h at 37 C, detected with Protein L-HRP
Protocol: as §1

[13] = biological target: T1, recombinant human (rh) PD-L1 Fc fusion …; experiment: competition ELISA: coated rhPD-L1 Fc fusion, scFv titrated, bound biotinylated PD-1 Fc fusion (15 ng/mL) detected with streptavidin-HRP
Protocol: Plates were blocked with 1% BSA and 0.05% Tween-20 in PBS, pH7.2. A serial dilution of scFvs was prepared, with eleven 1:3 dilutions starting at 1 mcg/mL, and added to plates. […] Background level was determined in the absence of PD-1. The ELISA was developed with TMB ELISA substrate solution (eBioscience, USA, cat. no. 00-4201-56).

[14] = biological target: T1, recombinant human (rh) PD-L1 Fc fusion …; experiment: competition ELISA: coated rhCD80-His, scFv titrated against constant 50 nM rhPD-L1 Fc fusion, bound PD-L1 Fc detected with anti-human IgG Fc-HRP
Protocol: Plates were blocked with 1% BSA and 0.05% Tween-20 in PBS, pH7.4. […] This mixture was incubated with the CD80 coated plates for 2 hours at room temperature. […] The ELISA was developed with TMB ELISA substrate solution (eBioscience, USA, cat. no. 00-4201-56).

[15] = biological target: T6, rhPD-L2 Fc fusion (RnD Systems, USA, cat. no. 1224-PL) (human, UniProt Q9BQ51 20-219); experiment: binding ELISA, rhPD-L2 Fc fusion coated, Protein L-HRP detection
T6 construct: Bought reagent; also called human PD-L2; not shown: Fc part of the bought fusion
T6 sequence (looked up): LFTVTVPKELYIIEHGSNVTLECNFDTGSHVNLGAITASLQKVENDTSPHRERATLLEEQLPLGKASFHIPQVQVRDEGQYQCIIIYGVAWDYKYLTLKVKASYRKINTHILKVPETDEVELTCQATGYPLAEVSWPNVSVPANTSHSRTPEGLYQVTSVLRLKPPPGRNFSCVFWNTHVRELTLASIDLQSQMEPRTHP
Protocol: as §2

[16] = biological target: T1, recombinant human (rh) PD-L1 Fc fusion …; experiment: binding ELISA: coated rhPD-L1 Fc fusion, scFv1 in PBS without incubation, detected with Protein L-HRP
Protocol: as §1

[17] = biological target: T1, recombinant human (rh) PD-L1 Fc fusion …; experiment: KinExA in solution, room temperature, PD-L1 Fc fusion titrated against constant scFv1, n-curve analysis
Protocol: (§3) Duplicate measurements were prepared for each data point. […] These mixtures were incubated for 5 hours. […] These mixtures were incubated for 9 hours. […] All steps were carried out at room temperature. […] This voltage signal is used to calculate the KD value and activity of the scFv using the “n-curve analysis” of the KinExA® Pro software version 4.1.9 or 4.2.10 (FIG. 5) using the option “titrant as analysis concentration reference”.

[18] = biological target: T7, natural form of PD-L1 expressed on the surface of ES-2 cells (human, UniProt Q9NZQ7 19-290); experiment: KinExA, ES-2 cells titrated against 50 pM scFv1, room temperature
T7 construct: whole, on cells; also called cell surface PD-L1; human natural form of PD-L1
Protocol: as §3
These mixtures were incubated for 5 hours, centrifuged for 10 minutes at 3800×g, and supernatants were transferred to fresh tubes. […] All steps were carried out at room temperature.

Sequence of PD-L1 expressing CHO cells (Promega, CS187103) (Q9NZQ7 19-290): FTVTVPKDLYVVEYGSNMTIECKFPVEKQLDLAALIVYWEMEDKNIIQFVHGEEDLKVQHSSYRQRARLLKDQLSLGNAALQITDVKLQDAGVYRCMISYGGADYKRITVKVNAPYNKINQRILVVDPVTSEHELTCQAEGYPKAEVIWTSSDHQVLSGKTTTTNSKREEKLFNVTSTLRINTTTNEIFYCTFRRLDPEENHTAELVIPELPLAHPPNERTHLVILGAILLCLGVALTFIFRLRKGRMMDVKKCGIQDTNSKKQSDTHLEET
T1 sequence (Q9NZQ7 19-239 limits assumed): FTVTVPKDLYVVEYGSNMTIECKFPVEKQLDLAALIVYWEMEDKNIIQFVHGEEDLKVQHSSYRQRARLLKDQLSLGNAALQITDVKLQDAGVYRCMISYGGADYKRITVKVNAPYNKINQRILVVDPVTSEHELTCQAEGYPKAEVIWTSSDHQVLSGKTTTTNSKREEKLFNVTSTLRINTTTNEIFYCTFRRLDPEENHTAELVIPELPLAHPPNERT
T2 sequence (Q9NZQ7 19-238 limits assumed): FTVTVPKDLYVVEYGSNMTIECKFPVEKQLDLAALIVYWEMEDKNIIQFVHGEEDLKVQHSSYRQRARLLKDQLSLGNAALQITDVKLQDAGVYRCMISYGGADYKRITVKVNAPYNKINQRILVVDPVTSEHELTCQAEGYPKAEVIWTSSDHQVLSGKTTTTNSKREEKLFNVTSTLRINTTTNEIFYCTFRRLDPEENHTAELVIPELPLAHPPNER
T7 sequence (Q9NZQ7 19-290): as the sequence (Q9NZQ7 19-290) above
T5 sequence (D4AE25 entry or part of it R02H R02H limits assumed): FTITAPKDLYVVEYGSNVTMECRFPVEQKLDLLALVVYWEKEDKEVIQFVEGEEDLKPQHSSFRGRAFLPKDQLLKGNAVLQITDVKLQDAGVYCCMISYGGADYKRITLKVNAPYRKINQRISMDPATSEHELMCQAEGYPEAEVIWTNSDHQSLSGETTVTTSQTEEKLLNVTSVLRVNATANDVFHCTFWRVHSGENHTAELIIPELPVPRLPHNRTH
T3 sequence (Q9EP73 19-238 limits assumed, stated change not applied): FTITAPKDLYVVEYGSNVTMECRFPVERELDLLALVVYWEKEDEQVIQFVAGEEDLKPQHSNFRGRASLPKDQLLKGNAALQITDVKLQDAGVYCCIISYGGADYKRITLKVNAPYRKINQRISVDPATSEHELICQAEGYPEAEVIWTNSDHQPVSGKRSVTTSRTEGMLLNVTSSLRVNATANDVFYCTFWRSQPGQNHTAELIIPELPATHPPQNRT

IC50 [1]: 0.606 nM
B1: IgG_4 (antibody, V domains shown)
VH: EVQLVESGGGVVRPGGSLRLSCAASGFTFDDYGMTWVRQAPGRGLEWVSGIHWHGKRTGYADSVKGRFTISRDNAKKSLYLQMNSLKGEDTALYHCVRGGMSTGDWFDPWGQGTLVIVSS
VL: DIQMTQSPSSLSASLGDRVTITCRASQSINSYLNWYQQKPGKAPKLLIYVASSLQSGVPSRFSGSGSGTEFTLTISNLQPEDFATYYCQQSYSTPPITFGQGTRLEIKR
notes: Produced in CHO K1 cells; also called H2M8314N as described in WO2015/112805A1

binding result [4]: no binding (tested: 5 mcg/mL)
EC50 (read off the curve) [5]: ~7 ng/mL
fold tighter affinity than to human PD-L1 [6]: 2.7 fold
binding result [7]: no binding (tested: 5 mcg/mL)
IC50, PD-1/PD-L1 blockade assay (luciferase, PD-L1 CHO cells and PD-1 Jurkat cells) [8]: 0.75 nM and 0.874 nM
Kd [9]: 0.0033 nM
binding result [10]: no binding
EC50 (read off the curve) [11]: ~7 ng/mL
EC50 (read off the curve) [12]: ~7 ng/mL
IC50 (read off the curve) [13]: ~1 nM
IC50 (read off the curve) [14]: 10 to 20 nM
binding result [15]: no binding (tested: 5 mcg/mL)
EC50 (read off the curve) [16]: ~7 ng/mL
Kd [17]: 0.0088 nM
Kd [18]: 0.0128 nM
B3: scFv1 (scFv)
scFv: EIVMTQSPSTLSASVGDRVIITCQASEDIYSLLAWYQQKPGKAPKLLIYDASDLASGVPSRFSGSGSGAEFTLTISSLQPDDFATYYCQGNYGSSSSSSYGAVFGQGTKLTVLGGGGGSGGGGSGGGGSGGGGSEVQLVESGGGLVQPGGSLRLSCTVSGIDLSSYTMGWVRQAPGKGLEWVGIISSGGRTYYASWAKGRFTISRDTSKNTVYLQMNSLRAEDTAVYYCARGRYTGYPYYFALWGQGTLVTVSS
notes: also called E. coli cell expressed scFv1

More lines, now with the values behind:

B2: IgG_1 (antibody, V domains shown)
VH: EVQLVESGGGLVQPGGSLRLSCTVSGIDLSSYTMGWVRQAPGKGLEWVGIISSGGRTYYASWAKGRFTISRDTSKNTVYLQMNSLRAEDTAVYYCARGRYTGYPYYFALWGQGTLVTVSS
VL: EIVMTQSPSTLSASVGDRVIITCQASEDIYSLLAWYQQKPGKAPKLLIYDASDLASGVPSRFSGSGSGAEFTLTISSLQPDDFATYYCQGNYGSSSSSSYGAVFGQGTKLEIKR
notes: Produced in CHO K1 cells; also called scFv1 converted into IgG format
Kd [2]: 0.00277 nM
fold tighter affinity than scFv1 to PD-L1 [3]: ~3 fold
IC50 [1]: 0.327 nM

B4: CHO cell expressed scFv1 (scFv)
scFv: EIVMTQSPSTLSASVGDRVIITCQASEDIYSLLAWYQQKPGKAPKLLIYDASDLASGVPSRFSGSGSGAEFTLTISSLQPDDFATYYCQGNYGSSSSSSYGAVFGQGTKLTVLGGGGGSGGGGSGGGGSGGGGSEVQLVESGGGLVQPGGSLRLSCTVSGIDLSSYTMGWVRQAPGKGLEWVGIISSGGRTYYASWAKGRFTISRDTSKNTVYLQMNSLRAEDTAVYYCARGRYTGYPYYFALWGQGTLVTVSS
IC50, PD-1/PD-L1 blockade assay (luciferase, PD-L1 CHO cells and PD-1 Jurkat cells) [8]: 0.602 nM
